Measurements: the supplement of paper PMC7877785
± gives the uncertainty stated by the source.

Assay: self-splicing fitness, log relative to wild type (ln ratio); higher = more splicing; Tetrahymena group I intron in knt gene, E. coli kanamycin selection, DiMSum; sequences stand for … in CUCUCU…GGAGGGAAAAGUUAUCAGGCAUGCACCUGGUAGCUAGUCUUUAAACCAAUAGAUUGCAUCGGUUUAAAAGGCAAGACCGUCAAAUUGCGGGAAAGGGGUCAACAGCCGUUCAGUACCAAGUCUCAGGGGAAACUUUGAGAUGGCCUUGCAAAGGGUAUGGUAAUAAGCUGACGGACAUGGUCCUAACCACGCAGCCAAGUCCUAAGUCAACAGAUCUUCUGUUGAUAUGGAUGCAGUUCACAGACUAAAUGUCGGUCGGGGAAGAUGUAUUCUUCUCAUAAGAUAUAGUCGGACCUCUCCUUAAUGGGAGCUAGCGGAUGAAGUGAUGCAACACUGGAGCCGCUGGGAACUAAUUUGUAUGCGAAAGUAUAUUGAUUAGUUUUGGAGUACUCGUGGUCG
Summary of the method: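 Pooled colonies went to amplicon sequencing on an Illumina HiSeq 2500 after six replicate transformations. The plates were LB agar with 100 μg/mL carbenicillin, 50 μM IPTG and 0.2% rhamnose, with or without 25 μg/mL kanamycin, incubated overnight at 37°C or 30°C. The E. coli BL21(DE3) library had all eight P1ex-region intron nucleotides randomised, the intron placed in the knt kanamycin-resistance gene on pET-22b(+). DiMSum fitness is the error-weighted combination of replicate fold changes, kanamycin against none, normalised to wild type.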

Sequence	self-splicing fitness (ln) (30 °C)	self-splicing fitness (ln) (37 °C)
GUAGAGCAAUAUUACGCUGU	-1.88 ± 0.2	-0.607 ± 0.22
GUAGAGCAAUAUUACGGGCA	-1.69 ± 0.15	-0.35 ± 0.21
GUAGAGCAAUAUUACGGGUU	-4.13 ± 0.3	-2.15 ± 0.22
GUAGAGCAAUAUUACGUAAU	-2.04 ± 0.13	-0.878 ± 0.12
GUAGAGCAAUAUUACGUAGC	-1.16 ± 0.19	–
GUAUAGCAAUAUUACGAGAU	-3 ± 0.29	-1.22 ± 0.22
GUAUAGCAAUAUUACGAUCU	-1.16 ± 0.19	0.209 ± 0.21
GUAUAGCAAUAUUACGAUGU	-1.07 ± 0.12	-0.00633 ± 0.17
GUAUAGCAAUAUUACGAUUU	-1.63 ± 0.11	0.247 ± 0.13
GUAUAGCAAUAUUACGCAAA	-3.07 ± 0.29	-1.7 ± 0.25
GUAUAGCAAUAUUACGCACU	-1.9 ± 0.16	-0.384 ± 0.14
GUAUAGCAAUAUUACGCCCC	-1.21 ± 0.2	-0.594 ± 0.29
GUAUAGCAAUAUUACGCCCU	-0.766 ± 0.2	0.0529 ± 0.26
GUAUAGCAAUAUUACGCUCU	-1.76 ± 0.13	-1.23 ± 0.15
GUAUAGCAAUAUUACGGAAG	–	-1.92 ± 0.27
GUAUAGCAAUAUUACGGCGC	-0.053 ± 0.11	-0.157 ± 0.12
GUAUAGCAAUAUUACGGCGU	-0.696 ± 0.13	0.267 ± 0.19
GUAUAGCAAUAUUACGGCUG	-1.2 ± 0.079	-0.532 ± 0.097
GUAUAGCAAUAUUACGUAUG	-3.06 ± 0.15	-1.93 ± 0.15
GUAUAGCAAUAUUACGUCAC	-3 ± 0.29	-1.7 ± 0.26
GUAUAGCAAUAUUACGUCUA	-0.881 ± 0.17	-1.01 ± 0.18
GUAUAGCAAUAUUACGUGGA	-3.62 ± 0.28	-2.23 ± 0.18
GUAUAGCAAUAUUACGUUAG	-2.87 ± 0.21	-1.07 ± 0.22
GUAUAGCAAUAUUACGUUGC	-2.83 ± 0.26	–
GUCAAGCAAUAUUACGAACU	-2.42 ± 0.11	-1.38 ± 0.12

Sequence	self-splicing fitness (ln) (30 °C)	self-splicing fitness (ln) (37 °C)
GUCAAGCAAUAUUACGAAGC	-3.84 ± 0.27	-2.54 ± 0.2
GUCAAGCAAUAUUACGACAG	-4.39 ± 0.33	-2.93 ± 0.33
GUCAAGCAAUAUUACGACAU	-1.673 ± 0.012	-0.579 ± 0.032
GUCAAGCAAUAUUACGAGAA	-3.59 ± 0.36	-1.83 ± 0.2
GUCAAGCAAUAUUACGAGCU	-3.49 ± 0.17	-1.85 ± 0.15
GUCAAGCAAUAUUACGAUAC	-3.1 ± 0.14	-1.16 ± 0.09
GUCAAGCAAUAUUACGAUAU	-1.28 ± 0.07	-0.525 ± 0.078
GUCAAGCAAUAUUACGAUGG	-4.88 ± 0.38	-3.68 ± 0.27
GUCAAGCAAUAUUACGCAUA	-1.58 ± 0.063	-0.367 ± 0.06
GUCAAGCAAUAUUACGCCUC	-1.25 ± 0.25	0.644 ± 0.41
GUCAAGCAAUAUUACGCUUA	-2.07 ± 0.14	-0.67 ± 0.12
GUCAAGCAAUAUUACGGAGA	-3.61 ± 0.26	-3.41 ± 0.39
GUCAAGCAAUAUUACGGAUC	-2.77 ± 0.1	-1.09 ± 0.093
GUCAAGCAAUAUUACGGCAC	-1.35 ± 0.16	0.15 ± 0.22
GUCAAGCAAUAUUACGUAUC	-2.71 ± 0.2	-0.284 ± 0.16
GUCAAGCAAUAUUACGUCUG	-3.64 ± 0.28	-0.0416 ± 0.085
GUCCAGCAAUAUUACGAACG	-1.52 ± 0.13	-0.855 ± 0.16
GUCCAGCAAUAUUACGAACU	-1.37 ± 0.074	-0.292 ± 0.081
GUCCAGCAAUAUUACGACUA	-1.52 ± 0.11	-0.869 ± 0.11
GUCCAGCAAUAUUACGACUG	-4.63 ± 0.39	-1.86 ± 0.22
GUCCAGCAAUAUUACGAGUA	-2.36 ± 0.16	-0.787 ± 0.12
GUCCAGCAAUAUUACGAUAG	-3.53 ± 0.14	-2.89 ± 0.17
GUCCAGCAAUAUUACGAUUG	-3.41 ± 0.17	-3.17 ± 0.24
GUCCAGCAAUAUUACGCAGU	-0.463 ± 0.046	-0.161 ± 0.058
GUCCAGCAAUAUUACGCAUA	-0.663 ± 0.091	-0.0806 ± 0.094

Sequence	self-splicing fitness (ln) (30 °C)	self-splicing fitness (ln) (37 °C)
GUCCAGCAAUAUUACGGACA	-2.84 ± 0.26	-1.67 ± 0.18
GUCCAGCAAUAUUACGGAGU	-0.181 ± 0.063	-0.404 ± 0.084
GUCCAGCAAUAUUACGGGUA	-0.764 ± 0.061	0.14 ± 0.066
GUCCAGCAAUAUUACGGUGU	-0.42 ± 0.066	0.833 ± 0.081
GUCCAGCAAUAUUACGUAAC	-0.291 ± 0.073	-0.649 ± 0.095
GUCCAGCAAUAUUACGUAUA	-1.37 ± 0.073	-0.787 ± 0.073
GUCCAGCAAUAUUACGUAUU	-0.819 ± 0.078	-0.174 ± 0.09
GUCCAGCAAUAUUACGUGUA	-0.96 ± 0.073	0.159 ± 0.077
GUCCAGCAAUAUUACGUUCA	-0.971 ± 0.088	0.797 ± 0.087
GUCGAGCAAUAUUACGAAGU	-1.31 ± 0.33	-1.65 ± 0.4
GUCGAGCAAUAUUACGACGU	-0.827 ± 0.19	-0.341 ± 0.16
GUCGAGCAAUAUUACGACUC	-2.05 ± 0.32	-1.15 ± 0.36
GUCGAGCAAUAUUACGAGCC	-3.81 ± 0.47	–
GUCGAGCAAUAUUACGAUCG	-3.65 ± 0.23	-1.38 ± 0.18
GUCGAGCAAUAUUACGAUUA	0.373 ± 0.19	-0.944 ± 0.2
GUCGAGCAAUAUUACGCAAC	-1.92 ± 0.33	-0.123 ± 0.22
GUCGAGCAAUAUUACGCAGA	-2.79 ± 0.32	-1.61 ± 0.39
GUCGAGCAAUAUUACGCAGU	-2.71 ± 0.17	-1.17 ± 0.14
GUCGAGCAAUAUUACGCUGU	-1.73 ± 0.13	-1.62 ± 0.2
GUCGAGCAAUAUUACGCUUC	-5.12 ± 0.38	-4.17 ± 0.33
GUCGAGCAAUAUUACGGCCU	-2.83 ± 0.34	–
GUCGAGCAAUAUUACGGCGA	-3.05 ± 0.21	-1.9 ± 0.25
GUCGAGCAAUAUUACGGGGU	-1.92 ± 0.16	-1.74 ± 0.18
GUCGAGCAAUAUUACGGUAA	-1.74 ± 0.19	-2.18 ± 0.19
GUCGAGCAAUAUUACGGUGC	-2.4 ± 0.16	-0.222 ± 0.13

Sequence	self-splicing fitness (ln) (30 °C)	self-splicing fitness (ln) (37 °C)
GUCGAGCAAUAUUACGUAAC	-0.996 ± 0.13	-0.434 ± 0.14
GUCGAGCAAUAUUACGUAAU	-0.411 ± 0.065	-0.515 ± 0.09
GUCGAGCAAUAUUACGUAGU	-2.34 ± 0.12	-1.47 ± 0.11
GUCGAGCAAUAUUACGUCUU	-2 ± 0.1	-1.39 ± 0.09
GUCGAGCAAUAUUACGUGUC	-2.18 ± 0.08	-1.6 ± 0.077
GUCGAGCAAUAUUACGUGUU	-4.22 ± 0.28	-2.09 ± 0.25
GUCGAGCAAUAUUACGUUCC	-1.99 ± 0.24	-0.593 ± 0.37
GUCGAGCAAUAUUACGUUUU	-3.92 ± 0.32	-2.07 ± 0.19
GUCUAGCAAUAUUACGACGG	-3.01 ± 0.29	-2.45 ± 0.27
GUCUAGCAAUAUUACGACUG	-2.39 ± 0.23	-2.73 ± 0.31
GUCUAGCAAUAUUACGAGGG	-3.1 ± 0.11	-1.57 ± 0.09
GUCUAGCAAUAUUACGAUCC	-0.754 ± 0.16	0.0678 ± 0.24
GUCUAGCAAUAUUACGAUGC	0.169 ± 0.14	-0.841 ± 0.13
GUCUAGCAAUAUUACGAUUC	-0.168 ± 0.094	0.284 ± 0.1
GUCUAGCAAUAUUACGCAAG	–	-1.66 ± 0.38
GUCUAGCAAUAUUACGCCAU	-2.11 ± 0.26	-2.04 ± 0.18
GUCUAGCAAUAUUACGCCCA	-0.688 ± 0.26	-0.356 ± 0.26
GUCUAGCAAUAUUACGCCCG	-0.678 ± 0.27	-0.293 ± 0.34
GUCUAGCAAUAUUACGCCGA	-1.65 ± 0.19	-0.506 ± 0.15
GUCUAGCAAUAUUACGCCGU	-0.884 ± 0.23	-0.0862 ± 0.26
GUCUAGCAAUAUUACGCGCA	-0.481 ± 0.098	0.157 ± 0.087
GUCUAGCAAUAUUACGCGGA	-2.61 ± 0.33	-2.07 ± 0.27
